One block for each binder: values may come before it.
Key:
[1] = biological target: RNaseH75-RNC, ribosome-nascent-chain complex carrying a 75 amino acid-long nascent chain of RNaseH (not stated | E. coli) (UniProt P0A7Y4)
[2] = biological target: TolB75-RNC, formylated ribosome-nascent-chain complex carrying the 75 N-terminal amino acids of TolB (not stated | E. coli) (UniProt P0A855)
[3] = biological target: proOmpA75-RNC, ribosome-nascent-chain complex carrying a 75 amino acid-long nascent chain of proOmpA (not stated | E. coli) (UniProt P0A910)
[4] = biological target: DnaK75-RNC, ribosome-nascent-chain complex carrying a 75 amino acid-long nascent chain of DnaK (not stated | E. coli) (UniProt P0A6Y8)
[5] = biological target: vacant 70S ribosomes from E. coli MRE600 (E. coli); test: stopped-flow fluorescence kinetics (association); PDF(Bpy) (300 nM) rapidly mixed with 70S ribosomes or TolB75-RNC (420 nM); buffer A; 10 °C; single-exponential fit, apparent rate at one concentration
[6] = biological target: TolB75-RNC, formylated ribosome-nascent-chain complex carrying the 75 N-terminal amino acids of TolB (not stated | E. coli) (UniProt P0A855); test: as above
[7] = biological target: vacant 70S ribosomes from E. coli MRE600 (E. coli); test: stopped-flow fluorescence kinetics, extrapolated; rate constants measured at 10 °C, extrapolated to 37 °C by Eq. 3 with single-turnover deformylation of TolB75-RNC as the reference; Kd,calc from the extrapolated rate constants
[8] = biological target: vacant 70S ribosomes from E. coli MRE600 (E. coli); test: stopped-flow fluorescence kinetics (chase); preformed 70S-PDF(Bpy) or RNC-PDF(Bpy) complex mixed with excess unlabeled PDF (15 µM); Bodipy fluorescence; buffer A; 10 °C; single-exponential fit
[9] = biological target: TolB75-RNC after deformylation of the nascent chain by PDF (not stated | E. coli) (UniProt P0A855); test: as above
[10] = biological target: vacant 70S ribosomes from E. coli MRE600 (E. coli); test: stopped-flow fluorescence kinetics (titration, global fit); PDF(Bpy) (100 nM) mixed with 70S ribosomes (0.5-2 µM); buffer A; 10 °C; global fit to a one-step binding model in KinTek Explorer; Kd,calc = k-1/k1
[11] = biological target: vacant 70S ribosomes from E. coli MRE600 (E. coli); test: fluorescence polarisation; equilibrium titration of PDF(Bpy) (200 nM) with 70S ribosomes; fluorescence anisotropy; 10 °C; corrected for light scattering; hyperbolic fit

Sequence of UniProt P0A7Y4 (P0A7Y4 whole entry, looked up, one chain of several): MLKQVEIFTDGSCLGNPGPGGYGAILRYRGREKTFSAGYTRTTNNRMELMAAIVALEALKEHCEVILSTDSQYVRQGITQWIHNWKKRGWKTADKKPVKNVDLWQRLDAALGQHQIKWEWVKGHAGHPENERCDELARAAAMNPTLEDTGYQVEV
Sequence of UniProt P0A6Y8 (P0A6Y8 whole entry, looked up, one chain of several): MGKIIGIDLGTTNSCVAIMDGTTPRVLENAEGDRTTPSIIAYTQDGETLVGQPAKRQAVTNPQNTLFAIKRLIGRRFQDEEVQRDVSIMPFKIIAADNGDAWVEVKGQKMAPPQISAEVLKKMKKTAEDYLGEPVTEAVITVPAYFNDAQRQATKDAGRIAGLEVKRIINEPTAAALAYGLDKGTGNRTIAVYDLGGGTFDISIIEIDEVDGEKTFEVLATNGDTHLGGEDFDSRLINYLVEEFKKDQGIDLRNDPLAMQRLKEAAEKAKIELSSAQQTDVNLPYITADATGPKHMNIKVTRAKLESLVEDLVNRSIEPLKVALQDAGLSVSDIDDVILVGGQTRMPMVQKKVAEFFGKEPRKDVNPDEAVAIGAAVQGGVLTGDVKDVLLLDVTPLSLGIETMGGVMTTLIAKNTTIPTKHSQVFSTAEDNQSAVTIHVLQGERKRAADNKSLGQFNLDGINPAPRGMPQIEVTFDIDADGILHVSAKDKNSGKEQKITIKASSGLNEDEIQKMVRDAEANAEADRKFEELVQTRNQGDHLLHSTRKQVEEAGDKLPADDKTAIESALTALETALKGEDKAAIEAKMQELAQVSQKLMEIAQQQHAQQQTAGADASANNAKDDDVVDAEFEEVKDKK
Sequence of UniProt P0A910 (P0A910 whole entry, looked up, one chain of several): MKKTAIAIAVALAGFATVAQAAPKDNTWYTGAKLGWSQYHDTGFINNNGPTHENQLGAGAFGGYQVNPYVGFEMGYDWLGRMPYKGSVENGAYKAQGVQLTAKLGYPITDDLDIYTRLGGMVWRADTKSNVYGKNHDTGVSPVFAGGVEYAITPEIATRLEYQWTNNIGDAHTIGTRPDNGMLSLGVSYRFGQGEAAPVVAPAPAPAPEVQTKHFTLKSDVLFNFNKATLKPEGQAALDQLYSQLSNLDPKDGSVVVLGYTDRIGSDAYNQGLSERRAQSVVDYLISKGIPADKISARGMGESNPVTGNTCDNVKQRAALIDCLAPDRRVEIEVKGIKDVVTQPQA

KM of nascent-chain deformylation by PDF, multiple turnover, 37 °C (TLC of f[35S]Met and [35S]Met) [1]: 0.6 µM
KM of nascent-chain deformylation by PDF, multiple turnover, 37 °C (TLC of f[35S]Met and [35S]Met) [2]: 0.25 µM
KM of nascent-chain deformylation by PDF, multiple turnover, 37 °C (TLC of f[35S]Met and [35S]Met) [3]: 0.3 µM
KM of nascent-chain deformylation by PDF, multiple turnover, 37 °C (TLC of f[35S]Met and [35S]Met) [4]: 0.5 µM
B1: peptide deformylase (PDF), unlabeled, with C-terminal His6-tag (enzyme)
chain: MSVLQVLHIPDERLRKVAKPVEEVNAEIQRIVDDMFETMYAEEGIGLAATQVDIHQRIIVIDVSENRDERLVLINPELLEKSGETGIEEGCLSIPEQRALVPRAEKVKIRALDRDGKPFELEADGLLAICIQHEMDHLVGKLFMDYLSPLKQQRIRQKVEKLDRLKARA

apparent rate of binding at 420 nM 70S ribosomes [5]: 44 s⁻¹
apparent rate of binding at 420 nM RNC [6]: 40 s⁻¹
Kd [7]: 2000 nM
koff [7]: 70 s⁻¹
kon [7]: 4e+07 M⁻¹ s⁻¹
koff [8]: 33 s⁻¹
koff [9]: 27 s⁻¹
Kd [10]: 2100 nM
koff [10]: 29 s⁻¹
kon [10]: 1.4e+07 M⁻¹ s⁻¹
Kd [11]: 2100 nM
B2: PDF(Bpy), peptide deformylase labelled at the C-terminus with Bodipy-FL (enzyme)
chain: B1 chain
modifications: Bodipy-FL on the C-terminal peptide CSDSK-Bpy

From publication PMC8712518
